# Source: US20120100582A1 (DSM IP ASSETS B V, published 2012)
# Target: the molecule itself
# Test: blue native gel electrophoresis, self-association
# Protocol: Blue native gel electrophoresis (BN-PAGE) of bacterial lysates containing APLE was performed according to the method described by Reisinger and Eichacker (2006), “Analysis of membrane protein complexes by blue native PAGE”, Proteomics 6 Suppl 2, 6-15, with the following modifications. Aliquots containing 200 μg of soluble proteins were diluted with 10 mM Tris/HCl pH 7.4 to a final volume of 95 μl. Five μl of loading buffer was added to the sample before applying them on an 8-16% linear gradient gel. Gradient gels (16×20 cm) were created with the help of a Bio-Rad Gradient Former model 485 (Bio-Rad Laboratories, Vienna, Austria). Electrophoresis was performed at a constant current of 24 mA per gel at 4° C. After electrophoresis, gels were incubated in 0.1 M potassium phosphate buffer, pH 7.0, for 20 min at room temperature. For the in-gel-detection of esterase activity, the substrate fluorescein diacetate (FDA) was dissolved in acetone [4 mg/ml] and applied on a Biodyne® A membrane ([…], 16×20 cm) (Pall Life Science, Michigan, USA). After evaporation of acetone, the membrane was brought in close contact with the gel which was placed on a glass plate. The gel-membrane sandwich was incubated at 37° C. for 30 min before detection of fluorescent bands.
# Esterase activity was visualized herein through staining with fluorescein resulting from hydrolysis of fluorescein diacetate (FDA). All 7 wild-type enzymes are trimers of about the same height on the native gel, whereas the V263D mutants show bands on the lower third of the gel. Multiple bands were excised and analyzed on an SDS-PAGE gel. Multiple bands result in one clear band at the size of about 58 kDa (data not shown). It is assumed that these bands result from different conformations of the same monomer.
row,Protein,binding result
1,"γ-PLE with V263D mutation (enzyme, Monomeric mutant; also called γPLE-V263D) GQPASPPVVDTAQGRVLGKYVSLEGLAQPVAVFLGVPFAKPPLGSLRFAPPQPAEPWSFVKNTTSYPPMCCQDPVVEQMTSDLFTNGKERLTLEFSEDCLYLNIYTPADLTKRGRLPVMVWIHGGGLVLGGAPMYDGVVLAAHENVVVVAIQYRLGIWGFFSTGDEHSRGNWGHLDQVAALHWVQENIANFGGDPGSVTIFGESAGGESVSVLVLSPLAKNLFHRAISESGVALTVALVRKDMKAAAKQIAVLAGCKTTTSADFVHCLRQKSEDELLDLTLKMKFLTLDFHGDQRESHPFLPTVVDGVLLPKMPEEILAEKDFNTVPYIVGINKQEFGWLLPTMMGFPLSEGKLDQKTATSLLWKSYPIANIPEELTPVATDKYLGGTDDPVKKKDLFLDLMGDVVFGVPSVTVARQHRDAGAPTYMYEFQYRPSFSSDKKPKTVIGDHGDEIFSVFGFPLLKGDAPEEEVSLSKTVMKFWANFARSGNPNGEGLPHWPMYDQEEGYLQIGVNTQAAKRLKGEEVAFWNDLLSKEAAKKPPKIKHAEL",no binding
2,"PLE2 with V263D mutation (enzyme, Monomeric mutant; also called PLE2-V263D) GQPASPPVVDTAQGRVLGKYVSLEGLAQPVAVFLGVPFAKPPLGSLRFAPPQPAEPWSFVKNTTSYPPMCCQDPVVEQMTSDLFTNGKERLTLEFSEDCLYLNIYTPADLTKRGRLPVMVWIHGGGLVLGGAPMYDGVVLAAHENVVVVAIQYRLGIWGFFSTGDEHSRGNWGHLDQVAALHWVQENIANFGGDPGSVTIFGESAGGESVSVLVLSPLAKNLFHRAISESGVALTVALVRKDMKAAAKQIAVLAGCKTTTSADFVHCLRQKSEDELLDLTLKMKFLTLDFHGDQRESHPFLPTVVDGVLLPKMPEEILAEKDFNTVPYIVGINKQEFGWLLPTMMGFPLSEGKLDQKTATSLLWKSYPIANIPEELTPVATDKYLGGTDDPVKKKDLFLDLMGDVVFGVPSVTVARQHRDAGAPTYMYEFQYRPSFSSDKKPKTVIGDHGDEIFSVFGAPFLRGDAPEEEVSLSKTVMKFWANFARSGNPNGEGLPHWPMYDQEEGYLQIGVNTQAAKRLKGEEVAFWNDLLSKEAAKKPPKIKHAEL",no binding
3,"PLE5 with V263D mutation (enzyme, Monomeric mutant; also called PLE5-V263D) GQPASPPVVDTAQGRVLGKYVSLEGLAQPVAVFLGVPFAKPPLGSLRFAPPQPAEPWSFVKNTTSYPPMCCQDPVAGQMTSDLFTNGKERLIPEFSEDCLYLNIYTPADLTKRGRLPVMVWIHGGGLVVGGASTYDGLALAAHENVVVVAIQYRLGIWGFFSTGDEHSRGNWGHLDQVAALHWVQENIANFGGDPGSVTIFGESAGGESVSVLVLSPLAKNLFHRAISESGVAFTAGLVRKDMKAAAKQIAVLAGCKTTTSADFVHCLRQKSEDELLDLTLKMKFFALDLHGDPRESHPFLTTVVDGVLLPKMPEEILAEKDFNTVPYIVGINKQEFGWLLPTMMGFPLSEGKLDQKTATSLLWKSYPIANIPEELTPVATDKYLGGTDDPVKKKDLFLDLMGDVVFGVPSVTVARQHRDAGAPTYMYEFQYRPSFSSDKKPKTVIGDHGDEIFSVFGAPFLRGDAPEEEVSLSKTVMKFWANFARSGNPNGEGLPHWPMYDQEEGYLQIGVNTQAAKRLKGEEVAFWNDLLSKEAAKKPPKIKHAEL",no binding
4,"APLE with V263D mutation (enzyme, Monomeric mutant, tested in E. coli cleared lysate; also called APLE-V263D; mutant, monomeric APLE) GQPASPPVVDTAQGRVLGKYVSLEGLAQPVAVFLGVPFAKPPLGSLRFAPPQPAEPWSFVKNTTSYPPMCCQEPIGGQMLSDLFTNRKERLIPEFSEDCLYLNIYTPADLTKRGRLPVMVWIHGGGLVVGGASTYDGLALAAHENVVVVAIQYRLGIWGFFSTGDEHSRGNWGHLDQVAALHWVQENIANFGGDPGSVTIFGESAGGESVSVLVLSPLAKNLFHRAISESGVAFTAGLVRKDMKAAAKQIAVLAGCKTTTSADFVHCLRQKSEDELLDLTLKMKFFALDLHGDPRESHPFLTTVVDGVLLPKMPEEILAEKDFNTVPYIVGINKQEFGWLLPTMMGFPLSEGKLDQKTATSLLWKSYPIANIPEELTPVATDKYLGGTDDPVKKKDLFLDLMGDVVFGVPSVTVARQHRDAGAPTYMYEFQYRPSFSSDKKPKTVIGDHGDEIFSVFGFPLLKGDAPEEEVSLSKTVMKFWANFARSGNPNGEGLPHWPMYDQEEGYLQIGVNTQAAKRLKGEEVAFWNDLLSKEAAKKPPKIKHAEL",no binding
5,"PLE3 with V263D mutation (enzyme, Monomeric mutant; also called PLE3-V263D) GQPASPPVVDTAQGRVLGKYVSLEGLAQPVAVFLGVPFAKPPLGSLRFAPPQPAEPWSFVKNTTSYPPMCCQEPIGGQMLSDLFTNRKERLIPEFSEDCLYLNIYTPADLTKRGRLPVMVWIHGGGLVVGGASTYDGLALAAHENVVVVAIQYRLGIWGFFSTGDEHSRGNWGHLDQVAALHWVQENIANFGGDPGSVTIFGESAGGESVSVLVLSPLAKNLFHRAISESGVAFTAGLVRKDMKAAAKQIAVLAGCKTTTSADFVHCLRQKSEDELLDLTLKMKPLTLDLHGDPRESHPFLTTVVDGVLLPKMPEEILAEKDFNTVPYIVGINKQEFGWLLPTMMGFPLSEGKLDQKTATSLLWKSYPIANIPEELTPVATDKYLGGTDDPVKKKDLFLDLMGDVVFGVPSVTVARQHRDAGAPTYMYEFQYRPSFSSDKKPKTVIGDHGDEIFSVFGFPLLKGDAPEEEVSLSKTVMKFWANFARSGNPNGEGLPHWPMYDQEEGYLQIGVNTQAAKRLKGEEVAFWNDLLSKEAAKKPPKIKHAEL",no binding
6,"PICE with V263D mutation (enzyme, Monomeric mutant; also called PICE-V263D) GQPASPPVVDTAQGRVLGKYVSLEGLAQPVAVFLGVPFAKPPLGSLRFAPPQPAEPWSFVKNTTSYPPMCCQDPVAGQMTSDLFTNGKERLIPEFSEDCLYLNIYTPADLTKRGRLPVMVWIHGGGLVVGGASTYDGLALAAHENVVVVAIQYRLGIWGFFSTGDEHSRGNWGHLDQVAALHWVQENIANFGGDTGSVTIFGESAGGESVSVLVLSPLAKNLFHRAISESGVALTAGLVRKDMKAAAKQIAVLAGCKTTTSADFVHCLRQKSEDELLDLTLKMKFLTLDLHGDPRESHPFLPTVVDGVLLPKMPEEILAEKDFNTVPYIVGINKQEFGWLLPTMMGFPLSEGKLDQKTATSLLWKSFPITNIPEELTPVATDKYLGGTDDPVKKKDLFLDLMGDVVFGVPSVTVARQHRDAGAPTYMYEFQYRPSFSSDKKPKTVIGDHGDEIFSVFGFPLLKGDAPEEEVSLSKTVMKFWANFARSGNPNGEGLPHWPMYDQEEGYLQIGVNTQAAKRLKGEEVAFWNDLLSKEAAKKPPKIKHAEL",no binding
7,"PLE4 with V263D mutation (enzyme, Monomeric mutant; also called PLE4-V263D) GQPASPPVVDTAQGRVLGKYVSLEGLAQPVAVFLGVPFAKPPLGSLRFAPPQPAEPWSFVKNTTSYPPMCCQDPVAGQMTSDLFTNGKERLIPEFSEDCLYLNIYTPADLTKRGRLPVMVWIHGGGLVVGGASTYDGLALAAHENVVVVAIQYRLGIWGFFSTGDEHSRGNWGHLDQVAALHWVQENIANFGGDPGSVTIFGESAGGESVSVLVLSPLAKNLFHRAISESGVAFTAGLVRKDMKAAAKQIAVLAGCKTTTSADFVHCLRQKSEDELLDLTLKMKPLTLDLHGDPRESHPFLTTVVDGVLLPKMPEEILAEKDFNTVPYIVGINKQEFGWLLPTMMGFPLSEGKLDQKTATSLLWKSYPIANIPEELTPVATDKYLGGTDDPVKKKDLFLDLMGDVVFGVPSVTVARQHRDAGAPTYMYEFQYRPSFSSDKKPKTVIGDHGDEIFSVFGAPFLRGDAPEEEVSLSKTVMKFWANFARSGNPNGEGLPHWPMYDQEEGYLQIGVNTQAAKRLKGEEVAFWNDLLSKEAAKKPPKIKHAEL",no binding

# Target: the molecule itself
# Test: blue native gel electrophoresis, self-association (homotrimer)
# Protocol: Blue native gel electrophoresis (BN-PAGE) of bacterial lysates containing APLE was performed according to the method described by Reisinger and Eichacker (2006), “Analysis of membrane protein complexes by blue native PAGE”, Proteomics 6 Suppl 2, 6-15, with the following modifications. Aliquots containing 200 μg of soluble proteins were diluted with 10 mM Tris/HCl pH 7.4 to a final volume of 95 μl. Five μl of loading buffer was added to the sample before applying them on an 8-16% linear gradient gel. Gradient gels (16×20 cm) were created with the help of a Bio-Rad Gradient Former model 485 (Bio-Rad Laboratories, Vienna, Austria). Electrophoresis was performed at a constant current of 24 mA per gel at 4° C. After electrophoresis, gels were incubated in 0.1 M potassium phosphate buffer, pH 7.0, for 20 min at room temperature. For the in-gel-detection of esterase activity, the substrate fluorescein diacetate (FDA) was dissolved in acetone [4 mg/ml] and applied on a Biodyne® A membrane ([…], 16×20 cm) (Pall Life Science, Michigan, USA). After evaporation of acetone, the membrane was brought in close contact with the gel which was placed on a glass plate. […]
# Esterase activity was visualized herein through staining with fluorescein resulting from hydrolysis of fluorescein diacetate (FDA). […] Multiple bands were excised and analyzed on an SDS-PAGE gel. […]
row,Protein,binding result
1,"γPLE wild-type (enzyme, Tested in E. coli cleared lysate; Homotrimer; also called gamma-PLE) GQPASPPVVDTAQGRVLGKYVSLEGLAQPVAVFLGVPFAKPPLGSLRFAPPQPAEPWSFVKNTTSYPPMCCQDPVVEQMTSDLFTNGKERLTLEFSEDCLYLNIYTPADLTKRGRLPVMVWIHGGGLVLGGAPMYDGVVLAAHENVVVVAIQYRLGIWGFFSTGDEHSRGNWGHLDQVAALHWVQENIANFGGDPGSVTIFGESAGGESVSVLVLSPLAKNLFHRAISESGVALTVALVRKDMKAAAKQIAVLAGCKTTTSAVFVHCLRQKSEDELLDLTLKMKFLTLDFHGDQRESHPFLPTVVDGVLLPKMPEEILAEKDFNTVPYIVGINKQEFGWLLPTMMGFPLSEGKLDQKTATSLLWKSYPIANIPEELTPVATDKYLGGTDDPVKKKDLFLDLMGDVVFGVPSVTVARQHRDAGAPTYMYEFQYRPSFSSDKKPKTVIGDHGDEIFSVFGFPLLKGDAPEEEVSLSKTVMKFWANFARSGNPNGEGLPHWPMYDQEEGYLQIGVNTQAAKRLKGEEVAFWNDLLSKEAAKKPPKIKHAEL",binds
2,"APLE wild-type (enzyme, Homotrimer on native gel; also called pig liver esterase) GQPASPPVVDTAQGRVLGKYVSLEGLAQPVAVFLGVPFAKPPLGSLRFAPPQPAEPWSFVKNTTSYPPMCCQEPIGGQMLSDLFTNRKERLIPEFSEDCLYLNIYTPADLTKRGRLPVMVWIHGGGLVVGGASTYDGLALAAHENVVVVAIQYRLGIWGFFSTGDEHSRGNWGHLDQVAALHWVQENIANFGGDPGSVTIFGESAGGESVSVLVLSPLAKNLFHRAISESGVAFTAGLVRKDMKAAAKQIAVLAGCKTTTSAVFVHCLRQKSEDELLDLTLKMKFFALDLHGDPRESHPFLTTVVDGVLLPKMPEEILAEKDFNTVPYIVGINKQEFGWLLPTMMGFPLSEGKLDQKTATSLLWKSYPIANIPEELTPVATDKYLGGTDDPVKKKDLFLDLMGDVVFGVPSVTVARQHRDAGAPTYMYEFQYRPSFSSDKKPKTVIGDHGDEIFSVFGFPLLKGDAPEEEVSLSKTVMKFWANFARSGNPNGEGLPHWPMYDQEEGYLQIGVNTQAAKRLKGEEVAFWNDLLSKEAAKKPPKIKHAEL",binds
